Measurements: patent publication US20020106347A1, “Cytokines and their use in treatment and/or prophylaxis of breast cancer” (priority 1995, published 2002)

B1: interleukin-11 (protein, UniProt P20809 22-199, looked up)
Interleukin-11: PGPPPGPPRVSPDPRAELDSTVLLTRSLLADTRQLAAQLRDKFPADGDHNLDSLPTLAMSAGALGALQLPGVLTRLRADLLSYLRHVQWLRRAGGSSLKTLEPELGTLQARLDRLLRRLQLLMSRLALPQPPPDPPAPPLAPPSSAWGGIRAAHAILGGLHLTLDWAVRGLLLLKTRL
notes: human IL-11 purchased from Pepro Tech; cytokine
B2: ciliary neurotrophic factor (protein, UniProt P26441 1-200, looked up)
Ciliary neurotrophic factor: MAFTEHSPLTPHRRDLCSRSIWLARKIRSDLTALTESYVKHQGLNKNINLDSADGMPVASTDQWSELTEAERLQENLQAYRTFHVLLARLLEDQQVHFTPTEGDFHQAIHTLLLQVAAFAYQIEELMILLEYKIPRNEADGMPINVGDGGLFEKKLWGLKVLQELSQWTVRSIHDLRFISSHQTGIPARGSHYIANNKKM
notes: human CNTF purchased from AMRAD Operations Ltd; cytokine

Legend:
Assay type in all cases: cell-based, human
[1] = system: MCF-7 cells; experiment: Proliferation of MCF-7 cells in monolayer (liquid) culture, viable cell count; settings: for mean inhibition of cell proliferation: MCF-7, 7 days exposure, LIF 1000 U/ml, IL-6 100 ng/ml, OSM 10 ng/ml, IL-11 100 ng/ml, vs untreated control; for effect on cell proliferation (in words): MCF-7 / MCF-7M, up to 1 week culture
Method: FIGS. 2A, B and C are graphical representations of MCF-7M cells in liquid culture. 10^4 MCF-7M cells were cultured in 500 μl RPMI/10% bovine calf serum (BCS) (v/v) containing the indicated concentration of each of the growth factors (OSM or LIF). After 7 days culture viable cells were counted using a hemacytometer. Cell numbers reported here are the result of one experiment, each performed in triplicate.
FIG. 7 is a graphical representation showing inhibition of proliferation of MCF-7 cells by Oncostatin M (OSM). 10^4 MCF-7 cells were cultured in 500 μl RPMI/10% (v/v) BCS with the indicated concentrations of OSM. At 2, 4 and 6 days, viable cells were counted using a hemacytometer. Results are from 3 experiments, each performed in triplicate.
FIG. 8 is a graphical representation showing that MCF-7 cells are inhibited in a dose-dependent fashion by Oncostatin M (OSM). 10^4 MCF-7 cells were cultured in 500 μl RPMI/10% (v/v) BCS with the indicated concentrations of OSM. After 7 days viable cells were counted, and cell number expressed as a percentage of the corresponding untreated control value.
(§1) FIG. 16 is a graphical representation showing inhibition of MCF-7 cells after 7 days in suspension culture. 10^4MCF-7 cells were cultured in 500 μl RPMI/10% (v/v) BCS with the indicated growth factor. After 7 days viable cells were counted using a hemacytometer. Results are from 9 experiments, each performed in triplicate.
(§2) Proliferation of the cell lines was measured in monolayer culture in 24 well Costar cluster plates. Cells were plated at an initial density of 10 000 cells/ml and cultured in 500 μl RPMI-1640 supplemented with 10% (v/v) (v/v) BCS and with each growth factor as indicated (LIF, 1000 U/ml; IL-6, 100 ng/ml; OSM, 10 ng/ml; CNTF, 10 ng/ml; IL-11, 100 ng/ml). These concentrations are maximally active in other systems (Nandurkar et al., 1996; Hilton et al., 1994; Zhang et al., 1994; Tanigawa et al., 1995). After 7 or 10 days at 37° C. in a fully humidified atmosphere containing 10% (v/v) CO2 in air, cells were trypsinised and counted using a haemocytometer and an inverted microscope. Cell viability was assessed using eosin exclusion. Results were expressed as a percentage of the corresponding untreated control value for that experiment.

[2] = system: MCF-7 cells; experiment: Clonogenic assay in agar after monolayer culture; settings: MCF-7, 7 days monolayer then 14 days agar
Method: FIG. 3 is a graphical representation showing clonogenicity of MCF-7M cells. Following suspension culture MCF-7M cell viability was measured by agar culture. Cells were plated in agar with the indicated concentrations of each of the growth factors. After 14 days culture colonies of cells were counted. Cell numbers reported here are the results of 3 experiments, each performed in triplicate, and are expressed according to the number of cells that went into suspension culture.
FIG. 17 is a graphical representation showing clonogenicity of MCF-7 cells after 1 week in suspension culture. Following suspension culture clonogenicity of MCF-7 cells was assayed in agar culture. Cells were plated in agar with the indicated growth factor and maintained at 37° C0 in a humidified incubator with 5% CO2 in air. After 14 days colonies of cells were counted. Results are from 9 experiments using IL-6, LIF and OSM, and 5 experiments using CNTF and IL-11. Each experiment was performed in triplicate, and colony numbers are expressed as a percentage of untreated controls.
Clonogenic potential of cells following monolayer culture was assessed in a semi-solid culture medium. Cells were cultured in triplicate in 35 mm Petri dishes containing 1 ml Iscove's modified Dulbecco's medium (IMDM) supplemented with 25% (v/v) (v/v) BCS, 0.3% (w/v) agar with final concentration of growth factor as outlined above, and with 200 cells per ml for control cultures Cultures were maintained at 37° C. in a humidified incubator with 5% (v/v) CO2 in air. After 14 days, colonies were enumerated using a dissecting microscope. A colony was defined as a clone of greater than 40 cells. All cultures were performed in triplicate.

[3] = system: MCF-7 cells; experiment: Cell morphology after exposure to growth factor; settings: MCF-7 / MCF-7M, 6-14 days in growth factor
Text: FIG. 4 is a photographic representation showing morphology of growth factor stimulated MCF-7M cells. Following 1 week in suspension culture containing the various growth factors, MCF-7M cells were cytospun onto slides and subsequently stained with Giemsa.
FIG. 11 is a photographic representation showing cell morphology after exposure to OSM. MCF-7 cells from control cultures and appears of cells after 7 days in OSM. A) Control cells, 10× magnification. B) OSM treated cells, 10× magnification. C) OSM treated cells, 40× magnification. D) OSM treated cells, 100× magnification.
FIG. 15 is a photographic representation showing cell morphology after exposure to OSM. MCF-7 cells from control cultures (Panel A) and appearance of cells after culture for 14 days in OSM (10 ng/ml) (Panel B). MDA-MB-231 cells from control cultures (Panel C) and appearance of cells after culture for 7 days in OSM (Panel D).

[4] = system: four breast cancer cell lines; experiment: Proliferation of four breast cancer cell lines in monolayer culture (summary)
Method: as §2
Experiments were performed to determine whether these morphological changes were associated with alterations in cell growth. The proliferation of four breast cancer cell lines was examined in monolayer cultures containing either IL-6, LIF, OSM, CNTF or IL-11.

[5] = system: BT-549 cells; experiment: Proliferation of BT-549 cells in culture, viable cell count
Method: FIGS 5A and B are graphical representations of BT-549 cells in liquid culture. 10^4 BT-549 cells were cultured in 500 μl RPMI/10% (v/v) BCS containing the relevant concentration of each of the growth factors (OSM, IL-11 and IL-6). After 10 days, culture viable cells were counted using a hemacytometer. Cell numbers reported here in the two graphs are the results of 1 experiment performed in triplicate.
FIG. 18 is a graphical representation showing BT-549 cells after 10 days in suspension culture. 10^4BT-549 cells were cultured in 500 μl RPMI/10% (v/v) BCS with the indicated growth factor. After 10 days culture viable cells were counted using a hemacytometer. Results are from 6 experiments, each performed in triplicate.
as §2

[6] = system: MDA-MB-231 cells; experiment: Proliferation of MDA-MB-231 cells in culture, viable cell count; settings: MDA-MB-231
Method: as §1, with “19” for “16”, “MDA-MB-231” for “inhibition of MCF-7”, “10^4MDA-MB-231” for “10^4MCF-7”, “8” for “9”
as §2

Molecule	mean inhibition of cell proliferation [1] [%]	effect on cell proliferation (in words) [1]	effect on colony formation / clonogenic potential (in words) [2]	cell morphology (in words) [3]	cell lines with significant inhibition of cellular proliferation [4]	effect on cell proliferation (in words) ([5]; BT-549)	mean growth inhibition ([5]; BT-549, 7 days) [%]	growth inhibition, up to (maximum observed) ([5]; BT-549, 10 days)	mean growth inhibition ([5]; BT-549, 10 days) [%]	effect on cellular proliferation (in words) [6]
interleukin-6 [IL-6]	23	did not appear to be able to induce inhibition	significant reduction of colony formation	morphologically similar to the control	¼	–	–	–	–	–
B1	27	–	did not have detectable effect on subsequent clonogenicity	–	2/4	inhibited	30	up to 63%	56	–
B2	–	no effect on cellular proliferation	no effect on clonogenic potential	–	–	–	–	–	–	did not respond
